# According to the DeepSol protein solubility set:
# Test: soluble on expression in E. coli; label from the status in PepcDB or PDB records
row,Sequence,soluble on expression in E. coli
1,PFKESQARGLLQDNMANSYNGGDFEDGLLNLSKEVFPTDKYLYQDGQFLDKKTINAYLNPKYTKREIDKMSEKDKKDKKANENLGLNPSHEGETNPEKIAEKSPAYLSNILEQDFYGGGDTKGKNIKGMTIGLAMNSVYYYKKEKDGPTFSKKLDDSEVKKQGKQMASEILSRLRENDDLKDIPIHFAIYKQSSEDSITPGEFITQATAEKSQTKLNEWHNINEKSALLPSSTAADYDENLNNNFKQFNDNLQSYFSNFTQAVGKVKFVDKKPQRLVVDLPIDYYGQAETIGITQYVTEQANKYFDKIDNYEIRIKDGNQPRALISKTKDDKEPQVHIYSN,soluble
2,PISKMVTAHFVLIHTICHGAWIWHKLKPALERAGHKVTALDMAASGIDPRQIEQINSFDEYSEPLLTFLEKLPQGEKVIIVGEACAGLNIAIAADRYVDKIAAGVFHNSLLPDTVHSPSYTVEKLLESFPDWRDTEYFTFTNITGETITTMKLGFVLLRENLFTKCTDGEYELAKMVMRKGSLFQNVLAQRPKFTEKGYGSIKKVYIWTDQDKIFLPDFQRWQIANYKPDKVYQVQGGDHKLQLTKTEEVAHILQEVADAYA,soluble
3,PKKEVVRIHASSGTTGKPTVVGYTKKDLKTWAELISRVVTAAGVTDEDTAQVAFGYGLFTGGFGLHYGLENVGASVIPMSSGNTEKQIMLMKDFETTVLICTPSYALYISEVAQKMGIDPKKDLKLKIGLFGGEACSESARTEIESKWGILATQNYGMSELMGPGVSGECEYQCGMHIS,not soluble
4,PKRSDARLPQVAAFSYVEDLLQAGVHVHLYTNGFLHSKLIMVDSQVASIGSTNMDFRSLENNFEFNGIIYDEPTVHRLEAIFFEDLLQSEPLDLKRWRKRSRIKKFSESFVRLFSPLL,not soluble
5,PLESCVRLHSSSGTTGNPTVMLYTQNDLDNWSKLMARCMSLSGANRHDIFQNIMGYGLFTGGIGFHYGAERLGMLTIPIGPGNSKRQGWFMKHLGVSVVHILPSYAFRLYSHLKEEGVDPKELPLRIAFIGAEPHSEAMRREIERLYGIKAFNSFGLSEMNGPGVAFECQEQSGMHLW,not soluble
6,PLGSQYFLKVLIPSYAAGSIIGKGGQTIVQLQKETGATIKLSKSKDFYPGTTERVCLIQGTIEALNAVHGFIAEKIREMPQNVAKTEPVSILQPQTTVNPDRANQVKIIVPNSTAGLIIGKGGATVKAIMEQSGAWVQLSQKPDGINLQNRVVTVSGEPEQNRKAVELIIQKIQEDPQ,soluble
7,PLIAVFIGSILFDYRLAQETADTAYDHSLNNAALDIAAYIQTVGLSPKLRLTPEAEAMLRHDAVDKIFFAVRDSNKQLLIGDAQLPAYPGAIHKRPVFIDDVYQGEKIRATTQLIMVDANEITITVAETMREREHASNRIL,not soluble
8,PLLIKNGEIITADSRYKADIYAEGETITRIGQNLEAPPGTEVIDATGKYVFPGFIDPHVHIYLPFMATFAKDTHETGSKAALMGGTTTYIEMCCPSRNDDALEGYQLWKSKAEGNSYCDYTFHMAVSKFDEKTEGQLREIVADGISSFKIFLSYKNFFGVDDGEMYQTLRLAKELGVIVTAHCENAELVGRLQQKLLSEGKTGPEWHEPSRPEAVEAEGTARFATFLETTGATGYVVHLSCKPALDAAMAAKARGVPIYIESVIPHFLLDKTYAERGGVEAMKYIMSPPLRDKRNQKVLWDALAQGFIDTVGTDHCPFDTEQKLLGKEAFTAIPNGIPAIEDRVNLLYTYGVSRGRLDIHRFVDAASTKAAKLFGLFPRKGTIAVGSDADLVVYDPQYRGTISVKTQHVNNDYNGFEGFEIDGRPSVVTVRGKVAVRDGQFVGEKGWGKLLRREPMYF,soluble
9,PLPEACADMLWSNLGLLAAEQILPVLHNWARALKTDGLLFFTCFGRDTLAELKCRLKENGIESRSALFPDMHDLGDMLAENGFYDPVTDTAKLVLDYKKAETFWADMDTLGVWRAMAWNDENAARSCVGTIFEREGGLGITLETVYGHAVK,not soluble
10,PNISDIIEQYLKQVLNMSDQDIVEIKRSEIANKFRCVPSQINYVINTRFTLERGYIVESKRGGGGYIRIMKVKTKSEAQLIDQLLELIDHRISQSSAEDVIKRLMEEKVISEREAKMMLSVMDRSVLYIDLPERDELRARMLKAMLTSLKYKLEI,soluble
11,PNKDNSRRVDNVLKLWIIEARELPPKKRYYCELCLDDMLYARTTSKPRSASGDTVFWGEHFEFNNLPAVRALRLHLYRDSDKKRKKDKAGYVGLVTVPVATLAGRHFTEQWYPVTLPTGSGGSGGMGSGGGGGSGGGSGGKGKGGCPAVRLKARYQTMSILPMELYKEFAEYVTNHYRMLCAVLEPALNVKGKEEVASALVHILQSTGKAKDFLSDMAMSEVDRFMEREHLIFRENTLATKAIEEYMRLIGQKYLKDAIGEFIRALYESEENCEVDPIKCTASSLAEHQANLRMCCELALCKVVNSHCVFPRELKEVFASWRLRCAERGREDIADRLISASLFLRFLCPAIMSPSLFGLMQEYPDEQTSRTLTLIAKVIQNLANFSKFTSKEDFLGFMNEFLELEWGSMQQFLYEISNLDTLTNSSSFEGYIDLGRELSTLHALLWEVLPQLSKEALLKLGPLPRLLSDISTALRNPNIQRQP,soluble
12,PQEKLKLLAFTGTKGKTTAAYFAYHMLKESYKPAMFSTMNTTLDGKTFFKSQLTTPESLDLFAMMAECVTNGMTHLIMEVSSQAYLVDRVYGLTFDVGVFLNISPDHIGPIEHPTFEDYFYHKRLLMENSRAVVINSGMDHFSFLADQVADQEHVFYGPLSDNQITTSQAFSFEAKGQLAGHYDIQLIGHFNQENAMAAGLACLRLGASLADIQKGIAKTRVPGR,not soluble
13,PQFGLFSKYRTPNCSQYRLPGCPRHFNPVCGSDMSTYANECTLCMKIREGGHNIKIIRNGPC,soluble
14,PQLDEARTNGLMKTLFPHQVLSTIQASRILKTYNGVVIADSTGLGKTRVAINLAVMAINDGRNPLLIAPKSALETTWKDEMDKTHVHIDSKRSEYLSQHPDEAIKEIQGKDFIIVDEAHYFKSPGSNRYSVLRDLMAAGQKQIVLLTATP,not soluble
15,PREPVVNDEMCDVCEVWTAESLFPCRVCTRVFHDGCLRRMGYIQGDSAAEVTEMAHTETGWSCHYCDNINLLLTEE,soluble
16,PRVELEIPEDVDAEQDHLDITVEGDNGSVTRRLWYPDIDVSVDGDTVVIESDEDNAKTMSTIGTFQSHIENMFHGVTEGWEYGMEVFYSHFPMQVNVEGDEVVIENFLGEKAPRRTTIHGDTDVEIDGEELTVSGPDIEAVGQTAADIEQLTRINDKDVRVFQDGVYITRKPNRGDA,soluble
17,PTHIAIGIYFNPEIAPAPFISLIETNQCALAVRKYANEVGIPTVRDVKLARKLYKTHTKYSFVDFEHLDEVLRLIVWLEQVENTHLEHHHHHH,soluble
18,PVPRTCWIGPWKKNLAQGKITLKLINWIKKAELKNQPVLIFFPEIEAMNQFAEALVNYDFTRPVTVHSADQLRKEKVEWLREGKIKLLLTTTILERGVTFKDVQVAVFGSEGRIFTEAALVQIAGRAGRKLTHPTGDVCFFHYGKTTEMNRAITHIKKMNQLGFKEG,soluble
19,QDKPVFVYRLIARGTVEEKIQHLQQEKAALADGLFSEGNGDGWKLDEADIDAL,soluble
20,QDSPNAIKAAVISSPMLGFYSGLLPKSIAKILVAIKLKFNNIISNTPWYFLGQKDYSPVNFTDNKLTHSIPRYQYFVDLYKKNKIIQLGGVTTHWLAQSIAAQKELFSKIVQLKTPILLLQASGDTVVCQQAQDDFCQQLHTLQPQSCPNGVPSNIDNAFHELFFETDDLRNKAITQSLAWFEQH,not soluble
21,QGTDQYTILANRIANAVEQYRSQRALDASRERLSLFIDKSPLGVIEWDESFEVVQVNEKGEEILRRGESALAGKGFETLVPDSALDAVEETITALQEGSGGYYTVLDIETGDGEEIVCEWHNRIIREDGETVAIFSQFQEIT,not soluble
22,QIKSQGCRISRTFLLICSRGRKQRMKDSENKGASSPDMEPSYGGGLFDMVKGGAGRLFSNLKDNLKDTLKDTSSRVIQSVTSYTKGDLDFTYVTSRIIVMSFPLDNVDIGFRNQVDDIRSFLDSRHLDHYTVYNLSPKSYRTAKFHSRVSECSWPIRQAPSLHNLFAVCRNMYNWLLQNPKNVCVVHCLDGRAASSILVGAMFIFCNLYSTPGPAIRLLYAKRPGIGLSPSHRRYLGYMCDLLADKPYRPHFKPLTIKSITVSPIPFFNKQRNGCRPYCDVLIGETKIYSTCTDFERMKEYRVQDGKIFIPLNITVQGDVVVSMYHLRSTIGSRLQAKVTNTQIFQLQFHTGFIPLDTTVLKFTKPELDACDVPEKYPQLFQVTLDVELQPHDKVIDLTPPWEHYCTKDVNPSILFSSHQEHQDTLALGGQAPIDIPPDNPRHYGQSGFFASLCWQDQKSEKSFCEEDHAALVNQESEQSDDELLTLSSPHGNANGDKPHGVKKPSKKQQEPAAPPPPEDVDLLGLEGSAMSNSFSPPAAPPTNSELLSDLFGGGGAAGPTQAGQSGVEDVFHPSGPASTQSTPRRSATSTSASPTLRVGEGATFDPFGAPSKPSGQDLLGSFLNTSSASSDPFLQPTRSPSPTVHASSTPAVNIQPDVSGGWDWHAKPGGFGMGSKSAATSPTGSSHGTPTHQSKPQTLDPFADLGTLGSSSFASKPTTPTGLGGGFPPLSSPQKASPQPMGGGWQQGGAYNWQQPQPKPQPSMPHSSPQNRPNYNVSFSAMPGGQNERGKGSSNLEGKQKAADFEDLLSGQGFNAHKDKKGPRTIAEMRKEEMAKEMDPEKLKILEWIEGKERNIRALLSTMHTVLWAGETKWKPVGMADLVTPEQVKKVYRKAVLVVHPDKATGQPYEQYAKMIFMELNDAWSEFENQGQKPLY,soluble
23,QIQLTQSPSSLSASVGDRVTITCSASSSVNSSALFWYQQKPGKAPKPWIYLTSNLASGVPSRFSGSGSGTDYTLTISSLQPEDFATYYCQQISGNPWTFGQGTKVEIKRADAAPTVSIFPPSSEQLTSGGASVVCFLNNFYPKDINVKWKIDGSERQNGVLNSWTDQDSKDSTYSMSSTLTLTKDEYERHNSYTCEATHKTSTSPIVKSFNRNEC,soluble
24,QLTPTFYDNSCPNVSNIVRDTIVNELRSDPRIAASILRLHFHDCFVNGCDASILLDNTTSFRTEKDAFGNANSARGFPVIDRMKAAVESACPRTVSCADLLTIAAQQSVTLAGGPSWRVPLGRRDSLQAFLDLANANLPAPFFTLPQLKDSFRNVGLNRSSDLVALSGGHTFGKNQCRFIMDRLYNFSNTGLPDPTLNTTYLQTLRGLCPLNGNLSALVDFDLRTPTIFDNKYYVNLEEQKGLIQSDQELFSSPNATDTIPLVRSFANSTQTFFNAFVEAMDRMGNITPLTGTQGQIRLNCRVVNSNSLLHDMVEVVDFVSSM,soluble
25,QQEKEFLESYPQNCPPDALPGTPGNLDSAQEKALAELRKLLEDAGFIERLDDSTLLRFLRARKFDVQLAKEMFENCEKWRKDYGTDTILQDFHYDEKPLIAKFYPQYYHKTDKDGRPVYFEELGAVNLHEMNKVTSEERMLKNLVWEYESVVQYRLPACSRAAGHLVETSCTIMDLKGISISSAYSVMSYVREASYISQNYYPERMGKFYIINAPFGFSTAFRLFKPFLDPVTVSKIFILGSSYQKELLKQIPAENLPVKFGGKSEVDESKGGLYLSDIGPWRDPKYIGPEGEAPE,soluble
